Biological target: Clostridium difficile toxin A (TcdA) (Clostridium difficile), P16154
Assay: SPR (Biacore 3000), VHH over immobilized TcdA, 1:1 fit
Settings: remark: other sources report otherwise

Sequence of Clostridium difficile toxin A (TcdA) (Clostridium difficile), P16154 (P16154 whole entry): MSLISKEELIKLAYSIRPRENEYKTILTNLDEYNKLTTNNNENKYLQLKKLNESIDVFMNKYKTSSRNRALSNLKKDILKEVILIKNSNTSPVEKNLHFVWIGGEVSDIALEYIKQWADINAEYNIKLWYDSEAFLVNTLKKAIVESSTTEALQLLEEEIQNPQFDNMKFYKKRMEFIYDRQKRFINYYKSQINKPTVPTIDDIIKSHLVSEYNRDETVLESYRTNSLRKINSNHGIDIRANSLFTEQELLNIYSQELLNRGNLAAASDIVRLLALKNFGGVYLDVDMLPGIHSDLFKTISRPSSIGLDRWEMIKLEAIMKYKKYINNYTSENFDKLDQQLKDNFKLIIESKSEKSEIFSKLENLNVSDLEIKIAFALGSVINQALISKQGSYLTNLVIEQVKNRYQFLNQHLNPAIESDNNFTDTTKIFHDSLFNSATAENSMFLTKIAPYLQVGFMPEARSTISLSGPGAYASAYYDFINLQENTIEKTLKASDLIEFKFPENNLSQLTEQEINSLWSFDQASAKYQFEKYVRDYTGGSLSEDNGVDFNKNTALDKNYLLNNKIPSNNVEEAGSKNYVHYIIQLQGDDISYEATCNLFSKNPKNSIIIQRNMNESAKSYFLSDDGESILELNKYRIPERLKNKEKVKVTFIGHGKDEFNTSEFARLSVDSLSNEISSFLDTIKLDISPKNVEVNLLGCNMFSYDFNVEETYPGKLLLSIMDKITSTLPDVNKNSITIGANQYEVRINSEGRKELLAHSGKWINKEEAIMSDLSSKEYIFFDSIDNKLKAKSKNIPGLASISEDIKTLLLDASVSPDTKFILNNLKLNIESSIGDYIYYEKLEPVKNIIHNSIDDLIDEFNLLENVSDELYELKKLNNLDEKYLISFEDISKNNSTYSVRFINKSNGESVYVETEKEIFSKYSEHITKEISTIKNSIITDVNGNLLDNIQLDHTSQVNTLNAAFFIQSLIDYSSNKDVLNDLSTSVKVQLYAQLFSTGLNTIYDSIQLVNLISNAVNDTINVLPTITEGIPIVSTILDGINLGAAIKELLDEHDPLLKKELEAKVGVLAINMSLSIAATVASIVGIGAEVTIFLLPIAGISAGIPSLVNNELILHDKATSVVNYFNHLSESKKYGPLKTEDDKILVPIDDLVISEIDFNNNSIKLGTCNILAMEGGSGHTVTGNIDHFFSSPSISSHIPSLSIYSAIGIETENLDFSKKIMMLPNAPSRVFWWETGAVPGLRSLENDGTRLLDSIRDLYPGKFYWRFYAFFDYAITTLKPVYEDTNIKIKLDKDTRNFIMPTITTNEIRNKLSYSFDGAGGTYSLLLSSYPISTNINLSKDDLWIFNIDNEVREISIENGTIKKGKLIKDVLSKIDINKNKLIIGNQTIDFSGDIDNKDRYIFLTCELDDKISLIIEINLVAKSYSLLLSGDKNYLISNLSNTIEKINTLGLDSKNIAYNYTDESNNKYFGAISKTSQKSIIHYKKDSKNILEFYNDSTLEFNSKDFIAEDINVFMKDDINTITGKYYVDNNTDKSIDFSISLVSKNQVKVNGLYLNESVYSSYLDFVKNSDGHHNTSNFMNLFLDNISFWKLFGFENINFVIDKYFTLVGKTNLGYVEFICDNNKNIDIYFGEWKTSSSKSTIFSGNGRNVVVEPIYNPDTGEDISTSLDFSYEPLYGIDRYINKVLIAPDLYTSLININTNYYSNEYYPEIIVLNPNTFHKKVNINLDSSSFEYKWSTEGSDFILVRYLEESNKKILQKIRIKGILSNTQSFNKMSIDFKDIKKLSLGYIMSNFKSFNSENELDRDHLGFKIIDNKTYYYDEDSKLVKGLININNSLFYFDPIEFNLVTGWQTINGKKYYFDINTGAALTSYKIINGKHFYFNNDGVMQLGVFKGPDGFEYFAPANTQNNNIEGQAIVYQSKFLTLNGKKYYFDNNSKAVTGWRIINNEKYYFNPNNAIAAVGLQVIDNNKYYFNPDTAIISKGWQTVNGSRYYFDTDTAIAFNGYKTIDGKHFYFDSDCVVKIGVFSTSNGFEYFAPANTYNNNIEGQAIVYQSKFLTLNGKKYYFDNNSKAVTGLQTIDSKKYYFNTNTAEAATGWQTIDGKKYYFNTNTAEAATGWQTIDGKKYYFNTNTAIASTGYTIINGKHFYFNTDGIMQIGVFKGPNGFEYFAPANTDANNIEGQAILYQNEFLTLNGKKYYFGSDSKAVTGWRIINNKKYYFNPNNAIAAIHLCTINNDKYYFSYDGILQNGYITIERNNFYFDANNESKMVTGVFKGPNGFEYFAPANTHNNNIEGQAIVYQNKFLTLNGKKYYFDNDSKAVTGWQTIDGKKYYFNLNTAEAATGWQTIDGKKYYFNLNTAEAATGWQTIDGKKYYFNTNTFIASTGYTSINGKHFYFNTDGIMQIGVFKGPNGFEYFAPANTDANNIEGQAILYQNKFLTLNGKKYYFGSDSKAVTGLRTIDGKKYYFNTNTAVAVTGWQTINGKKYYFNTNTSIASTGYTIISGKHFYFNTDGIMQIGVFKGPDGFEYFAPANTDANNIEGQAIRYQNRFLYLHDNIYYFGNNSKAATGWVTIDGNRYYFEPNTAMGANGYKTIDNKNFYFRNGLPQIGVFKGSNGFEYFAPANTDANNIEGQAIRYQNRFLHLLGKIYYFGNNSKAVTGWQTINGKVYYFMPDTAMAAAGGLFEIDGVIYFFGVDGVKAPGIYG

B1: Parent A26.8 VHH (VHH, not shown: small tags and cut ends)
VHH: QVKLEESGGGLVQAGGSLRLSCAASERTFSRYPVAWFRQAPGAEREFVAVISSTGTSTYYADSVKGRFTISRDNAKVTVYLQMNNLKREDTAVYFCAVNSQRTRLQDPNEYDYWGQGTQVTVSS
  Kd: 18.7 nM
